Measurements as given in PMC8573869.
Substitutions are numbered along the chain they refer to. Names may count otherwise.

T1: endogenous family with sequence similarity 134 member B (FAM134B), Q9H6L5
T1 chain: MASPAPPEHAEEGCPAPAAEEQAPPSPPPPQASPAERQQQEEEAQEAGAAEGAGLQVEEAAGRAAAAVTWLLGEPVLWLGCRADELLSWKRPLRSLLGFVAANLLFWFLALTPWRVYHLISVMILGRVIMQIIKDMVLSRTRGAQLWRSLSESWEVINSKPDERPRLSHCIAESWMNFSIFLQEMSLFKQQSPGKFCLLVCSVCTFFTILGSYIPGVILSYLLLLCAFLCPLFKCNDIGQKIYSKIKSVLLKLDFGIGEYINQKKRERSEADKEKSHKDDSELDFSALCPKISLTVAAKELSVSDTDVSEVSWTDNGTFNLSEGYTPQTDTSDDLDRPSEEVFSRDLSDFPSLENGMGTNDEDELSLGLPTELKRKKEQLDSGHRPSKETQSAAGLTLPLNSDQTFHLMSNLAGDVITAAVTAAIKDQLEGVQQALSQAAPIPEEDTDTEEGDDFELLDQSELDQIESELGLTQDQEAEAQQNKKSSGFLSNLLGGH

T2: endogenous long reticulon-3 (RTN3L), O95197
T2 chain: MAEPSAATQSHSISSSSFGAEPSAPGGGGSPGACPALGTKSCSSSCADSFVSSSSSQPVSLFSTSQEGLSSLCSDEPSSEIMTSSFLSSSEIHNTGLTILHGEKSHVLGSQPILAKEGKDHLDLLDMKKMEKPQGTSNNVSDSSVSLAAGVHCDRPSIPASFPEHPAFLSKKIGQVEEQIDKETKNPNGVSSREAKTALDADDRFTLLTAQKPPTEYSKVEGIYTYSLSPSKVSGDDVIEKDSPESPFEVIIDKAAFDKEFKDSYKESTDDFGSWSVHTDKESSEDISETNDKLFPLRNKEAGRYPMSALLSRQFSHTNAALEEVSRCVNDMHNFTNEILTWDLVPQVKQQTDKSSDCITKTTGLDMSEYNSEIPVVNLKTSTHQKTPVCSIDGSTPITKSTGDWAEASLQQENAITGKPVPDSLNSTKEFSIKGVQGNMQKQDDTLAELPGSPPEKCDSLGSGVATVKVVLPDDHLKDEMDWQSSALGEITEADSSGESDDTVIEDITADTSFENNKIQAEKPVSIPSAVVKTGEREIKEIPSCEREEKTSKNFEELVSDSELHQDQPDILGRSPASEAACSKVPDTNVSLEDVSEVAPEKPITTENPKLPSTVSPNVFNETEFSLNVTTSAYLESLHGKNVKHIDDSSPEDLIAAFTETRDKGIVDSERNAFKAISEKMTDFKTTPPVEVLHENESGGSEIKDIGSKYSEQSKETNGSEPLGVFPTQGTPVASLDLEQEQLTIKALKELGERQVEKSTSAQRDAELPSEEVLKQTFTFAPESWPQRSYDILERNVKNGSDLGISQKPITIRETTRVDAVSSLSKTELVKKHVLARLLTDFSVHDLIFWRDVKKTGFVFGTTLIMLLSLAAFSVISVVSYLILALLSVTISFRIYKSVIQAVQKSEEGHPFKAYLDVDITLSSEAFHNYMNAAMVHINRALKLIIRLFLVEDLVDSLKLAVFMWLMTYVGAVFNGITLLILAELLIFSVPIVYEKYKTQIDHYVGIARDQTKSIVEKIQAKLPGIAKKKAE

B1: FLAG-tagged wild-type Rab32, Q13637 T39N (protein)
chain: MAGGGAGDPGLGAAAAPAPETREHLFKVLVIGELGVGKNSIIKRYVHQLFSQHYRATIGVDFALKVLNWDSRTLVRLQLWDIAGQERFGNMTRVYYKEAVGAFVVFDISRSSTFEAVLKWKSDLDSKVHLPNGSPIPAVLLANKCDQNKDSSQSPSQVDQFCKEHGFAGWFETSAKDNINIEEAARFLVEKILVNHQSFPNEENDVDKIKLDQETLRAENKSQCC
B2: FLAG-tagged wild-type Rab32, Q13637 Q85L (protein)
chain: B1 chain with N39T, Q85L

Assays:
[1] = molecular target: T1, endogenous family with sequence …; test: co-immunoprecipitation (anti-FLAG IP, densitometry); conditions: chain shown with the change; MCF7 cells transfected for 48 h, crosslinking; n = 3; parent: est. 1.0; read off a plot
[2] = molecular target: T2, endogenous long reticulon-3 (RTN3L), …; test: as above; conditions: chain shown with the change; MCF7 cells transfected for 48 h, crosslinking; n = 3; parent: est. 1.0; read off a plot

Row | Binder | ratio to parent [1] | ratio to parent [2]
1 | B1 | 0.75 | 1.3
2 | B2 | 0.95 | 3.4
